Laboratory results taken from US20240382606A1.
Values joined by “and” are separate entries in the source; they are usually repeats but may differ in a detail not shown here. Equal entries are not always repeated.

What was measured:
[1] = biological target: P14 T cell receptor (TCR that specifically recognizes LCMV GP33/D^b), on CD8+ T cells of P14 TCR transgenic mice (mouse)
[2] = biological target: P14 T cell receptor (TCR that specifically recognizes LCMV GP33/D^b), on CD8+ T cells of P14 TCR transgenic mice (mouse); assay: cell-based or functional assay
[3] = biological target: Pmel T cell receptor (cognate TCR against GP100/D^b), on CD8+ T cells of Pmel TCR transgenic mice (mouse); assay: cell-based or functional assay
[4] = biological target: P14 T cell receptor (TCR that specifically recognizes LCMV GP33/D^b), on CD8+ T cells of P14 TCR transgenic mice (mouse); assay: flow cytometry, APNs on CD8+ T cells from P14 mice, in vitro
[5] = biological target: P14 T cell receptor (TCR that specifically recognizes LCMV GP33/D^b), on CD8+ T cells of P14 TCR transgenic mice (mouse); assay: flow cytometry after intravenous injection of pMHC-LNPs carrying mCD19 CAR mRNA in p14 mice
[6] = biological target: P14 T cell receptor (TCR that specifically recognizes LCMV GP33/D^b), on CD8+ T cells of P14 TCR transgenic mice (mouse); remark: listed apart in the source

| Substance | percent of CD8+ T cells targeted (DiD fluorescence) [1] [%] | in vivo transfection efficiency (surface VHH) of P14 CD8+ splenocytes [2] [%] | in vivo transfection efficiency of mCD19 CAR mRNA in CD8+ T cells of p14 mice [2] [%] | in vivo transfection of CD8+ T cells with hCD19 CAR mRNA in p14 mice [2] [%] | transfection efficiency with eGFP mRNA in P14 CD8+ T cells in vitro [2] [%] | in vivo transfection of Pmel CD8+ splenocytes (surface VHH) [3] | percent of CD8+ T cells bound [4] [%] | percent of CD8+ T cells targeted [5] [%] | percent of CD8+ splenocytes stained [6] [%] | percent binding (DiD fluorescence) [1] [%] | percent of CD8+ T cells stained [4] [%] |
| --- | --- | --- | --- | --- | --- | --- | --- | --- | --- | --- | --- |
| GP33/D^b antigen-presenting nanoparticle (APN): LCMV GP33 peptide […] on H2-D^b, lipid-anchore (peptide-MHC) | > 95 | 40 | 60 | 30 | 31 | 3% | 97 | > 80 |  |  |  |
| GP33/D^b tetramer (fluorescent streptavidin tetramer of […]/H2-D^b monomers) (from UniProt P01899 25-309) (peptide-MHC) |  |  |  |  |  |  |  |  | > 95 |  |  |
| GP100/D^b antigen-presenting nanoparticle (APN): GP100 peptide … on H2-D^b on an mRNA lipid nanoparticle (peptide-MHC) |  | < 2 |  |  |  | 30% and 40% |  |  |  | < 2 | 3.22 |
